Paper PMC10250397

Target: SERCA2-mTurquoise2 (UniProt P16615)
Test: FRET or BRET; three channel sensitized emission FRET on living HEK293-T cells, SERCA2-mTurquoise2 donor and GSK3β-sYFP2 acceptor, confocal microscope; normoxia or 60 min hypoxia followed by 30 min reoxygenation

UniProt P16615, sequence (P16615 whole entry): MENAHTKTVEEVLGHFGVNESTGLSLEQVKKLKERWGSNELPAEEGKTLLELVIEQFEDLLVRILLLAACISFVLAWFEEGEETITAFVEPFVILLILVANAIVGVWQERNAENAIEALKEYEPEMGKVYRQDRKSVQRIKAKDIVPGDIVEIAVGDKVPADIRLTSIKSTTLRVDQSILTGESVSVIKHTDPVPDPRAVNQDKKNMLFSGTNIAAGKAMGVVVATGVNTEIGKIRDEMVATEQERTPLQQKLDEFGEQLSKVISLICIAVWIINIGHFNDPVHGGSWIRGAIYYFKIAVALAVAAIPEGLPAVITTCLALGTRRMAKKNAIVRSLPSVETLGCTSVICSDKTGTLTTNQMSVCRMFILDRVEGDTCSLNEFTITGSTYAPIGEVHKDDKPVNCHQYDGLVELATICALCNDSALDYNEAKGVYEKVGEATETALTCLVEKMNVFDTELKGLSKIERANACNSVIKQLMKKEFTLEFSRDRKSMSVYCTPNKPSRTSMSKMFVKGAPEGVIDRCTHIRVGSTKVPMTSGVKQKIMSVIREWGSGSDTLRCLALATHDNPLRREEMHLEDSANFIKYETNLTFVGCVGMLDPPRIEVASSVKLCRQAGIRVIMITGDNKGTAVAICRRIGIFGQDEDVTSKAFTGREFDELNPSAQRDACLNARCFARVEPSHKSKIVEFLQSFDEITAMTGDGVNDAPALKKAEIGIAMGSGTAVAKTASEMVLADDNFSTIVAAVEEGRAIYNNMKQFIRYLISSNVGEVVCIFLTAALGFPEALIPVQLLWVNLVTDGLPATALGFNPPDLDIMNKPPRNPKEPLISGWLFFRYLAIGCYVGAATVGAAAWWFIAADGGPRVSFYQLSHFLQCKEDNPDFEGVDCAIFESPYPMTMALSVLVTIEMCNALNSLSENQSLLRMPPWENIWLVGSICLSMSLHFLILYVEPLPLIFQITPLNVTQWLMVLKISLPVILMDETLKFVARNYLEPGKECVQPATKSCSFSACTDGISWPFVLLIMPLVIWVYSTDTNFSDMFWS
GSK3β-sYFP2, sequence (P49841 whole entry): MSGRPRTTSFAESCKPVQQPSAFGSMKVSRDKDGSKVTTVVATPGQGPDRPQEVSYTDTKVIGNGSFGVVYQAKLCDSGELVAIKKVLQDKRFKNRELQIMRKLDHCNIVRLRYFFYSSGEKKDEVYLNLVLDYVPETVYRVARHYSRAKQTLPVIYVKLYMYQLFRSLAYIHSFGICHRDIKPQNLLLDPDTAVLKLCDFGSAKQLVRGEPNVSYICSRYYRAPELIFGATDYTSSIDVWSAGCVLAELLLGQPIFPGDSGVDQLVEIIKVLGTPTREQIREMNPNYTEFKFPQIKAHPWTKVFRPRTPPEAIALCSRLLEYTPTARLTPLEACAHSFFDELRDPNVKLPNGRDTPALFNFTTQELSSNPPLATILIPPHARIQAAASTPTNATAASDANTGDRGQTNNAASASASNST

Substance | fold change of FRET efficiency after H/R against normoxia | FRET efficiency
GSK3β-sYFP2 (from UniProt P49841 1-420) (enzyme) | 3 fold | 
GSK3β-sYFP2 (from UniProt P49841 1-420) (living HEK293-T cells) |  | 3.11%
